First the molecules themselves.
T1: Recombinant human Fc gamma receptor IIa, CD32a 131H (human, UniProt P12318 36-218)
T1 sequence (looked up): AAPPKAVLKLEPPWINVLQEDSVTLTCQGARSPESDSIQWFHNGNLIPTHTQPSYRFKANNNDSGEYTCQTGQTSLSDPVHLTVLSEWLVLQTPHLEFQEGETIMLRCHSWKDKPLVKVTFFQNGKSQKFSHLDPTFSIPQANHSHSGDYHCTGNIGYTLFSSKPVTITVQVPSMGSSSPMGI

T2: Recombinant human Fc gamma receptor IIa, CD32a 131R (human, UniProt P12318 36-218)
T2 sequence (looked up): T1 sequence (looked up) with H132R

T3: Recombinant human Fc gamma receptor IIb/c, CD32b/c (human, UniProt P31994 46-217)
T3 sequence (looked up): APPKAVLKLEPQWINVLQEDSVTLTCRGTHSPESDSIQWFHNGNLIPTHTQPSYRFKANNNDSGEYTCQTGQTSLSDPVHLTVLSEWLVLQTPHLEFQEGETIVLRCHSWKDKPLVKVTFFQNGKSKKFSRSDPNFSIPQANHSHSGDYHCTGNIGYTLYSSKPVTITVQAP

T4: CD20 Lipoparticles (UniProt P11836 1-297)
T4 sequence (looked up): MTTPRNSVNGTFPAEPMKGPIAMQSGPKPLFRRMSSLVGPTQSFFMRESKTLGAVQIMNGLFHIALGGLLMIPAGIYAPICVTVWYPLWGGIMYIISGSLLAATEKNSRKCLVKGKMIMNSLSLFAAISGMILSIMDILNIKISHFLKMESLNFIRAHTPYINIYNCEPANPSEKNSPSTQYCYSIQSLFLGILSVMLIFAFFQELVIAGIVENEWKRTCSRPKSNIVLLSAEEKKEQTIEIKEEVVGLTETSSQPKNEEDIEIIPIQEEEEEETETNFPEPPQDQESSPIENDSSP

T5: CD19 (UniProt P15391 20-291)
T5 sequence (looked up): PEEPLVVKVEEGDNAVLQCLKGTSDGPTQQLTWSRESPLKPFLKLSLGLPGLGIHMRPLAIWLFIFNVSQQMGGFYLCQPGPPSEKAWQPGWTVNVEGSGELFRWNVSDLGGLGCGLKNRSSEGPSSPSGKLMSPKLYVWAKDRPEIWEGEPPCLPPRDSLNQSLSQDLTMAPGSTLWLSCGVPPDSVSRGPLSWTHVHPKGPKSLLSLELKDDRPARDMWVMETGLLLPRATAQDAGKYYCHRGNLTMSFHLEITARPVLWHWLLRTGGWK

B1: Rc66SIDE (one-arm antibody) (antibody, human IgG1, kappa)
light: QIVLSQSPAILSASPGEKVTMTCRASSSVSYIHWFQQKPGSSPKPWIYATSNLASGVPVRFSGSGSGTSYSLTISRVEAEDAATYYCQQWTSNPPTFGGGTKLEIKRTVAAPSVFIFPPSDEQLKSGTASVVCLLNNFYPREAKVQWKVDNALQSGNSQESVTEQDSKDSTYSLSSTLTLSKADYEKHKVYACEVTHQGLSSPVTKSFNRGEC
heavy: QVQLQQPGAELVKPGASVKMSCKASGYTFTSYNMHWVKQTPGRGLEWIGAIYPGNGDTSYNQKFKGKATLTADKSSSTAYMQLSSLTSEDSAVYYCARSTYYGGDWYFNVWGAGTTVTVSAASTKGPSVFPLAPSSKSTSGGTAALGCLVKDYFPEPVTVSWNSGALTSGVHTFPAVLQSSGLYSLSSVVTVPSSSLGTQTYICNVNHKPSNTKVDKKAEPKSCDKTHTCPPCPAPELLGGPDVFLFPPKPKDTLMISRTPEVTCVVVDVSHEDPEVKFNWYVDGVEVHNAKTKPREEQYNSTYRVVSVLTVLHQDWLNGKEYKCKVSNKALPAPEEKTISKAKGQPREPQVYVLPPSRDELTKNQVSLLCLVKGFYPSDIAVEWESNGQPENNYLTWPPVLDSDGSFFLYSKLTVDKSRWQQGNVFSCSVMHEALHNHYTQKSLSLSPGK
chain: CPPCPAPELLGGPDVFLFPPKPKDTLMISRTPEVTCVVVDVSHEDPEVKFNWYVDGVEVHNAKTKPREEQYNSTYRVVSVLTVLHQDWLNGKEYKCKVSNKALPAPEEKTISKAKGQPREPQVYVYPPSRDELTKNQVSLTCLVKGFYPSDIAVEWESNGQPENNYKTTPPVLDSDGSFALVSKLTVDKSRWQQGNVFSCSVMHEALHNHYTQKSLSLSPGK
B2: Rc66SIDE-P4-Rc66SIDE (antibody, human IgG1, kappa)
light: B1 light
heavy: B1 heavy
chain: B1 chain
B3: Rc66SIDE-P16-Rc66SIDE (antibody, human IgG1, kappa)
light: B1 light
heavy: B1 heavy
chain: B1 chain
B4: Rc66SIDE-P28-Rc66SIDE (antibody, human IgG1, kappa)
light: B1 light
heavy: B1 heavy
chain: B1 chain
B5: B19c66 (one-arm antibody) (antibody, human IgG1, kappa)
light: not shown
heavy: not shown
chain: B1 chain with D14S, E107I
B6: B19c66AAC9 (one-arm antibody) (antibody, human IgG1, kappa)
light: not shown
heavy: QVQLQQSGAELVRPGSSVKISCKASGYAFSSYWMNWVKQRPGQGLEWIGQIWPGDGDTNYNGKFKGKATLTADESSSTAYMQLSSLASEDSAVYFCARRETTTVGRYYYAMDYWGQGTTVTVSSASTKGPSVFPLAPSSKSTSGGTAALGCLVKDYFPEPVTVSWNSGALTSGVHTFPAVLQSSGLYSLSSVVTVPSSSLGTQTYICNVNHKPSNTKVDKKVEPKSCDKTHTCPPCPAPKRRGGPSVFLFPPKPKDTLMISRTPEVTCVVVDVSHEDPEVKFNWYVDGVEVHNAKTKPREEQYNSTYRVVSVLTVLHQDWLNGKEYKCKVSNKALPAPIEKTISKAKGQPREPQVYVLPPSRDELTKNQVSLLCLVKGFYPSDIAVEWESNGQPENNYLTWPPVLDSDGSFFLYSKLTVDKSRWQQGNVFSCSVMHEALHNHYTQKSLSLSPGK
chain: B1 chain with L9D, L10E, D14S, E107I
B7: ACE2Fc-740HA201RF/O24A-DHS (bispecific antibody)
chain: not shown
light: not shown
heavy: QAYLQQSGAELVRPGASVKMSCKASGYTFTSYSMHWVKQTPRQGLEWIGAIYPGNDDTSYNQKFKGKATLTVDRSSSTAYMQLSSLTSEDSAVYFCTRDYSNYPFDYWGQGTTLTVSSASTKGPSVFPLAPSSKSTSGGTAALGCLVKDYFPEPVTVSWNSGALTSGVHTFPAVLQSSGLYSLSSVVTVPSSSLGTQTYICNVNHKPSNTKVDKKVEPKSCDKTHTCPPCPAPELLGGPSVFLFPPKPKDTLMISRTPEVTCVVVDVSHEDPEVKFNWYVDGVEVHNAKTKPREEQYNSTYRVVSVLTVDHHDWLNGKEYKCKVSNKALPAPIEKTISKAKGQPREPQVYTLPPCRDELTKNQVSLWCLVKGFYPSDIAVEWESNGQPENNYKTTPPVLDSDGSFFLYSKLTVDKSRWQQGNVFSCSVMHEALHSHYTQKSLSLSPG
notes: also called 15-23

Positions count from the first letter of the chain named. Numbers in names are those of the source. Where only a bound is given, the exact number is not on record here.

This note sets out measurements from patent publication US20220025071A1 (BIOMOLECULAR, published 2022).

The Kd is the equilibrium constant for the complex coming apart.

T6 sequence (P08637 17-208 F176V limits assumed): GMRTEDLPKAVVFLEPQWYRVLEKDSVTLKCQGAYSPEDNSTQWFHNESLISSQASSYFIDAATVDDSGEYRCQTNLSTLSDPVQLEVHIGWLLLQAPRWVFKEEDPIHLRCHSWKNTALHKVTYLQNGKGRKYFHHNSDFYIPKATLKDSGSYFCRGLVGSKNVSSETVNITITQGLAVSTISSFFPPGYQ
Sequence of Recombinant human Fc gamma receptor IIIb, CD16b (O75015 17-200 limits assumed): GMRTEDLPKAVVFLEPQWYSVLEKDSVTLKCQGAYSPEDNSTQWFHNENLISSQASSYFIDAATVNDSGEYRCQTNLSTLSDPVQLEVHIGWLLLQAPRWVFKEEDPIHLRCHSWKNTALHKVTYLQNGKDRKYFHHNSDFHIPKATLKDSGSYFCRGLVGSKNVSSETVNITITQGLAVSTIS

The target of one assay is Recombinant human Fc gamma receptor IIIa, CD16a 158F (human, UniProt P08637 17-208).
Sequence of Recombinant human Fc gamma receptor IIIa, CD16a 158F (P08637 17-208 limits assumed): as the sequence (P08637 17-208 F176V limits assumed) above, with V160F counted along it
Experiment: not given
With B1, the Kd worked out at 76.8 nM.

As for B2, the Kd was 3.87 nM.

Regarding B3, the Kd was 2.71 nM.

Consider B4, for which the Kd came to 6.62 nM.

The next assay concerns the target T6, Recombinant human Fc gamma receptor IIIa, CD16a 158V (human, UniProt P08637 17-208).
Experiment: not given
In the case of B1, the Kd is 46.2 nM.

Turning to B2, the Kd was 1.14 nM.

As to B3, the Kd is 0.257 nM.

For the molecule B4, the Kd is 4.98 nM.

Another assay addresses Recombinant human Fc gamma receptor IIIb, CD16b (human, UniProt O75015 17-200).
Experiment: not given
With B1, the Kd turned out to be 163 nM.

Regarding B2, the Kd was 1.05 nM.

Consider B3, for which the Kd was < 0.001 nM.

Regarding B4, the Kd is 5.64 nM.

In a further assay the target is T1, Recombinant human Fc gamma receptor ….
Experiment: not given
Consider B1, for which the Kd is 255 nM.

With B2, the Kd was found to be 2.54 nM.

For B3, the Kd turned out to be 0.808 nM.

With B4, the Kd was determined as 5.42 nM.

The next assay concerns the target T2, Recombinant human Fc gamma receptor ….
Experiment: not given
With B1, the Kd was determined as 202 nM.

B2: the Kd stood at 4.93 nM.

B3: the Kd is 1.83 nM.

Consider B4, for which the Kd is 8.11 nM.

The next assay deals with T3, Recombinant human Fc gamma receptor ….
Experiment: not given
With B1, the Kd was determined as 253 nM.

As to B2, the Kd came out at 3.17 nM.

B3: the Kd turned out to be 0.556 nM.

On to B4, for which the dissociation constant (Kd) worked out at 7.28 nM.

The target in the next assay is Recombinant human Fc gamma receptor I, CD64 (human, UniProt P12314 16-288).
Sequence of Recombinant human Fc gamma receptor I, CD64 (P12314 16-288 limits assumed): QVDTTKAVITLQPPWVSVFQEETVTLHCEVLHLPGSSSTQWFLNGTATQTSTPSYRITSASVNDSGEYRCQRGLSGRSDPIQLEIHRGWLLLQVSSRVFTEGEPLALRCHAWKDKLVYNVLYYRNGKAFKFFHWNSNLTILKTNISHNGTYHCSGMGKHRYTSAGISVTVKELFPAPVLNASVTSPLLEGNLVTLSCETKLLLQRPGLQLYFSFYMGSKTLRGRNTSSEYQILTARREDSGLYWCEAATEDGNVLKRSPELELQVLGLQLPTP
Experiment: not given
Turning to B2, the Kd is < 0.001 nM.

Consider B3, for which the dissociation constant (Kd) is < 0.001 nM.

As for B4, the Kd was 1.14 nM.

A further assay has as its target T6, Recombinant human Fc gamma receptor ….
Experiment: not given
This is another data set of the same source.
On to B5, for which the Kd stood at 234 nM.

The next assay concerns the target T4, CD20 Lipoparticles.
Experiment: not given
In turn, B1 registered a Kd of 21.4 nM.

For the molecule B2, the Kd is < 0.001 nM.

Regarding B3, the Kd was < 0.001 nM.

As to B4, the Kd was < 0.001 nM.

A further assay has as its target T5, CD19.
Experiment: not given
With B5, the Kd stood at 21.8 nM.

As to B6, binding was characterised by a dissociation constant (Kd) of 21 nM.

In a further assay the target is T3, Recombinant human Fc gamma receptor …. The assay is described as follows: SPR (Carterra LSA).
On to B7, for which the binding result is reported as “no binding (tested: up to 2000 nM)”.
